Experimental data taken from the supplement of paper PMC9170038.

Tested on: MS2 coat protein
Assay: apparent KD of MS2 coat protein; designed switch direction (-1 OFF switch, 1 ON switch): -1; higher = weaker reporter binding
Summary of the method: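 The reported apparent KD is a per-design median over clusters, from curve fits of normalised cluster fluorescence. Protein titrations used SNAP-549-labelled MS2 coat protein, doubled from 0.7 or 1.5 nM to 3 µM, in Tris-HCl pH 7.5 buffer with KCl, MgCl2, BSA, DTT, tRNA and Tween-20, with no input, 200 uM small-molecule ligand, or an oligonucleotide input. The RNA switches were transcribed on Illumina chips by stalled E. coli RNA polymerase.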

[1] = input ligand: microRNA oligo, concentration not stated
[2] = Eterna round: R95, input ligand: FMN 200 uM
[3] = Eterna round: R95, input ligand: microRNA oligo, concentration not stated
[4] = Eterna round: R95, input ligand: none

| Sequence | apparent KD of MS2 coat protein (input ligand: FMN 200 uM) [nM] | apparent KD of MS2 coat protein (input ligand: none) [nM] | apparent KD of MS2 coat protein [1] [nM] | apparent KD of MS2 coat protein [2] [nM] | apparent KD of MS2 coat protein [3] [nM] | apparent KD of MS2 coat protein [4] [nM] |
| --- | --- | --- | --- | --- | --- | --- |
| AUCUUGAUAGGAUAUACAUGAGGAUCACCCAUGUCCCACCCGUUACCUCUGGCCCUAUGUAGAAGGAUCGUCUA [Exy#20] (Eterna round: R97, puzzle: Exclusion 3) | 50.5 | 68.5 | – | – | – | – |
| GCGGACUAGAACGUGAGUUCUGAGACAUGAGGAUCACCCAUGUAGGAUAUCGAUUCGUUUCGAAUCGAGAAGGGCAUAGUCCGC [JL denovo 12] (Eterna round: R96, puzzle: Exclusion NG 3) | 21.3 | 20.3 | 14.2 | – | – | – |
| CGUAAGCUAGGAUAUGCUUUGGGAAAGCAUUCCUUCGAUAAACUUGAGGAUCACCCAAGUAGAAGGAGCUUACG [salish99_ex2_r4_010] (Eterna round: R97, puzzle: Exclusion 2) | 24.8 | 16.8 | – | – | – | – |
| AUUGUUUAUGUAGGAUAUGCCUGGCGUGCCUUCGCAGAAGGACAUGAGGAUCACCCAUGUAUUGCGGUCUGCGUUCAGAUCGCC [salish99_ExNG1_r4_027] (Eterna round: R96, puzzle: Exclusion NG 1) | 21.3 | 19.3 | 15 | – | – | – |
| UAUUAGCAAGCGAGAUCCCACAUGAGGAUCACCCAUGUGCUCGUGCAUCCAGAAUUACUGGGUGCUGCUCGUCUUAU [Winner reversed engineered 13] (Eterna round: R97, puzzle: Sensor, turn-off variant 1) | 15.2 | 14.8 | – | – | – | – |
| CCAUGGGAGCGAGGAUAUAGCCCAUGGGAAGAACUAGAAGGCGCAGACAUGAGGAUCACCCAUGUGUUCAUGAGGAGGUGGACA (Eterna round: R96, puzzle: Exclusion NG 1) | 153 | 121 | 82.6 | – | – | – |
| AGCAGACGAGGAUAUAAACGAUAUAACAUGAGGAUCACCCAUGUACGAUCGAUAGAUCGUUUAGAAGGCGUCUGCU [E5/9-A1] (Eterna round: R97, puzzle: Exclusion 5) | 14.5 | 13.1 | – | – | – | – |
| GCGCACCUACCAAAAGGUAGGCCGACAUGAGGAUCACCCAUGUAGGAUAUCGAUUGCUUUGCAGUCGAGAAGGACAUGAUGCGC [JL ENG3 3.80 Mod 9] (Eterna round: R96, puzzle: Exclusion NG 3) | 35.8 | 19 | 11.6 | – | – | – |
| AAAAAGUGAGGAUAUACAUAAGGACCCGGGAGGGAAAUAAAACAUGAGGAUCACCCAUGUAGAAGGCACAAAAA [Exclss2-I] (puzzle: Exclusion 2) | – | – | – | 20.2 | 22.2 | 13.5 |
| GGAGGCCAGUAAGGAUAUUCAUGGUAGAUUCAUGAAGAAGGUACGGAGUGUCCUGACAUGAGGAUCACCCAUGUAGCCUCCAAG [Betien] (Eterna round: R96, puzzle: Exclusion NG 1) | 76.4 | 34.3 | 25.1 | – | – | – |
| GGGCUGCGACACAGCCAAACAAAACAUGAGGAUCACCCAUGUCAGGAUAUACCGAUGCAGCAUCUGUAGAAGGGACAGAUCCAA [Lalaon] (Eterna round: R96, puzzle: Exclusion NG 3) | 151 | 79.7 | 68.8 | – | – | – |
| GGUGAAGCAGGAUAUGUAUCGAUAUACAUGAGGAUCACCCAUGUCAUGUACAAAUUGCAUAUAGAAGGGCUUCACC [Exclusion 5 (FMN-MS2 slide v.4)] (Eterna round: R97, puzzle: Exclusion 5) | 168 | 47.4 | – | – | – | – |
| CAGUACUGAGGAUAUACAUGAGGAUCACCCAUGUGUCUUAUAUUAGGAAACUAGGUAUGUAGAAGGCAGUACUG [Omei Ex3 Mod of Eli 4.27 v4] (Eterna round: R97, puzzle: Exclusion 3) | 304 | 62.1 | – | – | – | – |
| CAGUACUGAGGAUAUACAUGAGGAUCACCCAUGUGCUUUAGCUAGGAUACUAGCACCAGUAGAAGGCAGUACUG [Fiskers Ex 3 828 mod 12] (puzzle: Exclusion 3) | – | – | – | – | 10.7 | – |
| GCACGGAGUGUAGGAUAUCUGUGCGAUUAGCUCAGAGAAGGACACAUGAGGAUCACCCAUGUGUUCCUCGGAAACGAACCGUGC [Eli exng1 - 051] (Eterna round: R96, puzzle: Exclusion NG 1) | 32.2 | 14 | 10.9 | – | – | – |
| AACUGGCGAGGAUAUACUUGGCAUAUAGCCUAAUUUCGGCUACUUGAGGAUCACCCAAGUAGAAGGUGCACGGC [Anlaxebe] (Eterna round: R97, puzzle: Exclusion 2) | 16.5 | 15.1 | – | – | – | – |
| UAAUGCAAGCAAAGAUUCUACAUGAGGAUCACCCAUGUGCUCGUCUUAUAAAGUACUAUCACGAAAGUGAUAGUACA [Mat - Sensor v3 - turn-off var 1 - Eli Mod - D96] (puzzle: Sensor v3, turn-off variant 1) | – | – | – | 25.7 | 75.7 | 27.1 |

| Sequence | apparent KD of MS2 coat protein (input ligand: FMN 200 uM) [nM] | apparent KD of MS2 coat protein (input ligand: none) [nM] | apparent KD of MS2 coat protein [1] [nM] | apparent KD of MS2 coat protein [2] [nM] | apparent KD of MS2 coat protein [3] [nM] | apparent KD of MS2 coat protein [4] [nM] |
| --- | --- | --- | --- | --- | --- | --- |
| ACAUGAGGAUCACCCAUGUGACAAUAAUGGCUGAUACAGAGACAGGAUAUAGGUGAAUAUCUAACCUAGAAGGGUCAUGACUGG [Deportation 71 - Jieux - Exclusion NG 3] (Eterna round: R96, puzzle: Exclusion NG 3) | 34.8 | 54 | 33 | – | – | – |
| CCGCAAAUGUAGGAUAUCGUAUCGGAUACGAUACGAGAAGGGCAUACAUGAGGAUCACCCAUGUGUCCUAGCGG [Fiskers Ex 6 - 44] (puzzle: Exclusion 6) | – | – | – | – | 12 | – |
| CUCCUCAUGGCGCCUAAACACAUGAGGAUCACCCAUGUACAGGCUUUUCGCCGUCUUAUAAUAAAACCGAGGAUGCG [Soislebice] (puzzle: Sensor v3, turn-off variant 1) | – | – | – | 45.6 | 300 | 47.8 |
| ACAUAUGACUAGGAUAUCACUAGCGAUAGCUAGUGAGAAGGAGUCACAUGAGGAUCACCCAUGUGCUCCAAUAA [Mod5 Ex6/6-A4 by Brourd] (Eterna round: R97, puzzle: Exclusion 6) | 16.3 | 15.1 | – | – | – | – |
| CGAUCACAUGAGGAUCACCCAUGUCAGGAUAUCGUCCAUAGGAAACAACCCUUCGAGGCGAGAAGGGACAAUCG [Eternabot (Original) Solution 29] (Eterna round: R97, puzzle: Exclusion 1) | 46.9 | 31.1 | – | – | – | – |
| UUUAAUUUUUUUUUUUUACAAGCUUUUUGCUCGUCUUAUACAUGAGGAUCACCCAUGUGGGUAGGAGGUAAAUUAUC [JMF 72] (puzzle: Sensor v3, turn-off variant 2) | – | – | – | 32.5 | 50.4 | 35.5 |
| UAUAACCGAGGAUAUACAUGAGGAUCACCCAUGUAAUGUAGUAUAGUGUAUGUAAGAUGUAGAAGGUGGGAUGU (Eterna round: R97, puzzle: Exclusion 3) | 49.8 | 59 | – | – | – | – |
| AACUCUGAGAAGGAUAUUCAAUGGGAAACGAUAGAAGAAGGUUUCACAUGAGGAUCACCCAUGUCAAAUAGUGA [EX6 #72] (Eterna round: R97, puzzle: Exclusion 6) | 178 | 173 | – | – | – | – |
| UUUCAUCAUGUAGGAUAUGCGUGGCGAAGCUAUGCAGAAGGACAUGAGGAUCACCCAUGUUCUAGCGUCUGCGUACAGAUGCUA [JL ENG1 1.35] (Eterna round: R96, puzzle: Exclusion NG 1) | 226 | 52.4 | 45.1 | – | – | – |
| AAUAAGCUAGGAUAUACAUGAGGAUCACCCAUGUGAGGGCACGGCCGGCGCGUUUCCGGUAGAAGGAGUCAUAA [Exc;s3-VII] (puzzle: Exclusion 3) | – | – | – | – | 33.2 | – |
| AGAGUACAUGAGGAUCACCCAUGUCAGGAUAUGCAGAAGAAGAAGAAGAGAAGAGAGAGCAGAAGGGACAAGAG [Ex 1 M2] (puzzle: Exclusion 1) | – | – | – | 41.1 | 26.2 | 29.4 |
| GGUUGGCGAGGAUAUACAUGAGGAUCACCCAUGUGAGAGAAUAAAGUGAGAAAGAAAAGUAGAAGGCGCUGACA [Mat - Exclusion 3 - Mod of Salish D51] (puzzle: Exclusion 3) | – | – | – | 900 | 46.9 | 63.9 |
| UACAUGAGGAUCACCCAUGUUUUGUCGUGUAUGGUAUUUAUCUAGGAUAUCAAUUUGUAUAUUUAUGAGAAGGAGAAUAUUAAU [JMF's solution 67] (Eterna round: R96, puzzle: Exclusion NG 3) | – | – | 30.7 | – | – | – |
| GGUCAGACGGUAGGAUAUCCAUAUCGAGUGACCCUUUCAUAACAUGAGGAUCACCCAUGUCGGUGGGAGAAGGGCUGUACGGCG [salish99_ExNG02_R04_002] (Eterna round: R96, puzzle: Exclusion NG 2) | 45.8 | 35.6 | 22.6 | – | – | – |
| GGUGGACAUGAGGAUCACCCAUGUGAGGAUAUCGGCUGGCUAGCGGCGGACGGCUUCUCGAGAAGGCGCAUUGU [Exclusion 1 V83] (puzzle: Exclusion 1) | – | – | – | – | 46.3 | – |
| GAUCAACAUGAGGAUCACCCAUGUGAGGAUAUGUAUCAUAGAUCUUCGGAUCUAUGAUACAGAAGGCAUGUGAA [Ex1-3: 101] (puzzle: Exclusion 1) | – | – | – | – | 67.8 | – |
| ACGUGAUAUCUGUCGGUGGACAUGAGGAUCACCCAUGUAAGCUCUUUGCUCGUCUUAUAACCCGGUGACAGACCUUC [Xerile] (puzzle: Sensor v3, turn-off variant 1) | – | – | – | 42.3 | 322 | 52.8 |
